What was measured:
[1] = target: biotin-labeled soluble FcRn (Fc neonatal receptor); assay: ELISA, biotin-FcRn captured on Neutravidin plate, single-point IgG, pH 7.0
[2] = target: biotin-labeled soluble FcRn (Fc neonatal receptor); assay: ELISA, biotin-FcRn captured on Neutravidin plate, single-point IgG, pH 6.0
[3] = target: Human FcγRIIIa(158F) soluble extracellular domain with engineered 6-histidine tag (human) (UniProt P08637); assay: KinExA, 7.5 nM IgG equilibrated with titrated soluble FcγRIIIa(158F), free IgG captured on receptor beads
[4] = target: human Fc gamma RI receptor (CD64), extracellular portion with C-terminal 6-his tag; assay: ELISA: plate-coated human FcγRI (CD64) extracellular portion with 6-his tag; IgG titrated; bound IgG detected with anti-human kappa alkaline phosphatase conjugate, A560
human Fc gamma RI receptor (CD64), extracellular portion with C-terminal 6-his tag, sequence (chain, as listed by the source limits assumed): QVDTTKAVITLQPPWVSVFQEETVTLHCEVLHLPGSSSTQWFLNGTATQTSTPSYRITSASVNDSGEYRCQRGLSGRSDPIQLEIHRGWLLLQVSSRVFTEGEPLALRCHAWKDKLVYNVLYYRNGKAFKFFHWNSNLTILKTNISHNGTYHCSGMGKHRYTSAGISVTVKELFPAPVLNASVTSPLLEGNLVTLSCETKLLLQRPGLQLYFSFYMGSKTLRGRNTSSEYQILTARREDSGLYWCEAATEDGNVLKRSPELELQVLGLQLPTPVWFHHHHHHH

UniProt P08637, sequence (P08637 other isoform, or with tags, fused parts or gaps): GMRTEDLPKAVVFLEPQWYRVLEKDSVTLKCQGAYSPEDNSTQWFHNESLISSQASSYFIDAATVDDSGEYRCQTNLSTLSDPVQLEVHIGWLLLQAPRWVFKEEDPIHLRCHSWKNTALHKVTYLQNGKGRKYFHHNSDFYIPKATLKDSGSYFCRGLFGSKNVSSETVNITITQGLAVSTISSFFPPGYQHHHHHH

What does the source list for “anti-CD20 IgG Fc variant A330K (antibody)”?
FcRn 7.0 (binding relative to parental) (% of parental (parental = 100)) [1]: 99; FcRn 6.0 (binding relative to parental) (% of parental (parental = 100)) [2]: 104

Which results are given for “anti-CD20 IgG Fc variant A330R (antibody)”?
FcRn 7.0 (binding relative to parental) (% of parental (parental = 100)) [1]: 101; FcRn 6.0 (binding relative to parental) (% of parental (parental = 100)) [2]: 77

“anti-CD20 IgG Fc variant A339T (antibody)” was tested. Which FcRn 7.0 (binding relative to parental) (% of parental (parental = 100)) [1] did it give?
The FcRn 7.0 (binding relative to parental) (% of parental (parental = 100)) was 109.

And the FcRn 6.0 (binding relative to parental) (% of parental (parental = 100)) [2]?
Its FcRn 6.0 (binding relative to parental) (% of parental (parental = 100)) is 115.

What does the source list for “anti-CD20 IgG Fc variant A378D (antibody)”?
FcRn 7.0 (binding relative to parental) (% of parental (parental = 100)) [1]: 93; FcRn 6.0 (binding relative to parental) (% of parental (parental = 100)) [2]: 122

Which FcRn 7.0 (binding relative to parental) (% of parental (parental = 100)) [1] does the source give for “anti-CD20 IgG Fc variant D280A (antibody)” here?
The FcRn 7.0 (binding relative to parental) (% of parental (parental = 100)) was 84.

And the FcRn 6.0 (binding relative to parental) (% of parental (parental = 100)) [2]?
Its FcRn 6.0 (binding relative to parental) (% of parental (parental = 100)) is 91.

“anti-CD20 IgG Fc variant D280K (antibody)” was tested. Which FcRn 7.0 (binding relative to parental) (% of parental (parental = 100)) [1] did it give?
The FcRn 7.0 (binding relative to parental) (% of parental (parental = 100)) was 93.

And the FcRn 6.0 (binding relative to parental) (% of parental (parental = 100)) [2]?
The FcRn 6.0 (binding relative to parental) (% of parental (parental = 100)) was 103.

“anti-CD20 IgG Fc variant H268D (antibody)” was tested. Which FcRn 7.0 (binding relative to parental) (% of parental (parental = 100)) [1] did it give?
Its FcRn 7.0 (binding relative to parental) (% of parental (parental = 100)) is 84.

What about the FcRn 6.0 (binding relative to parental) (% of parental (parental = 100)) [2] of the same substance?
The FcRn 6.0 (binding relative to parental) (% of parental (parental = 100)) was 87.

With “anti-CD20 IgG Fc variant H268E (antibody)” as the substance, how does the FcRn 7.0 (binding relative to parental) (% of parental (parental = 100)) [1] read?
Its FcRn 7.0 (binding relative to parental) (% of parental (parental = 100)) is 81.

And the FcRn 6.0 (binding relative to parental) (% of parental (parental = 100)) [2]?
Its FcRn 6.0 (binding relative to parental) (% of parental (parental = 100)) is 90.

“anti-CD20 IgG Fc variant I332D (antibody)” was tested. Which FcRn 7.0 (binding relative to parental) (% of parental (parental = 100)) [1] did it give?
Its FcRn 7.0 (binding relative to parental) (% of parental (parental = 100)) is 102.

And the FcRn 6.0 (binding relative to parental) (% of parental (parental = 100)) [2]?
The FcRn 6.0 (binding relative to parental) (% of parental (parental = 100)) was 91.

How did the FcRn 7.0 (binding relative to parental) (% of parental (parental = 100)) [1] turn out when “anti-CD20 IgG Fc variant I332E (AME-133: variable region 33 with the I332E Fc variant sequence) (antibody)” was run?
The FcRn 7.0 (binding relative to parental) (% of parental (parental = 100)) was 97.

And the FcRn 6.0 (binding relative to parental) (% of parental (parental = 100)) [2]?
The FcRn 6.0 (binding relative to parental) (% of parental (parental = 100)) was 99.

And the Kd [3]?
The Kd was 52 nM.

And the EC50 (read off the curve) [4]?
Its EC50 (read off the curve) is 2 µg/mL.

Which FcRn 7.0 (binding relative to parental) (% of parental (parental = 100)) [1] does the source give for “anti-CD20 IgG Fc variant I332K (antibody)” here?
Its FcRn 7.0 (binding relative to parental) (% of parental (parental = 100)) is 97.

And the FcRn 6.0 (binding relative to parental) (% of parental (parental = 100)) [2]?
The FcRn 6.0 (binding relative to parental) (% of parental (parental = 100)) was 109.

What does the source list for “anti-CD20 IgG Fc variant I332R (antibody)”?
FcRn 7.0 (binding relative to parental) (% of parental (parental = 100)) [1]: 92; FcRn 6.0 (binding relative to parental) (% of parental (parental = 100)) [2]: 97

Which FcRn 7.0 (binding relative to parental) (% of parental (parental = 100)) [1] does the source give for “anti-CD20 IgG Fc variant L251F (antibody)” here?
The FcRn 7.0 (binding relative to parental) (% of parental (parental = 100)) was 100.

What about the FcRn 6.0 (binding relative to parental) (% of parental (parental = 100)) [2] of the same substance?
The FcRn 6.0 (binding relative to parental) (% of parental (parental = 100)) was 102.

How did the FcRn 7.0 (binding relative to parental) (% of parental (parental = 100)) [1] turn out when “anti-CD20 IgG Fc variant P247H (antibody)” was run?
Its FcRn 7.0 (binding relative to parental) (% of parental (parental = 100)) is 73.

And the FcRn 6.0 (binding relative to parental) (% of parental (parental = 100)) [2]?
Its FcRn 6.0 (binding relative to parental) (% of parental (parental = 100)) is 79.

Which FcRn 7.0 (binding relative to parental) (% of parental (parental = 100)) [1] does the source give for “anti-CD20 IgG Fc variant P247I (antibody)” here?
Its FcRn 7.0 (binding relative to parental) (% of parental (parental = 100)) is 74.

What about the FcRn 6.0 (binding relative to parental) (% of parental (parental = 100)) [2] of the same substance?
The FcRn 6.0 (binding relative to parental) (% of parental (parental = 100)) was 89.

“anti-CD20 IgG Fc variant P247L (antibody)” was tested. Which FcRn 7.0 (binding relative to parental) (% of parental (parental = 100)) [1] did it give?
Its FcRn 7.0 (binding relative to parental) (% of parental (parental = 100)) is 78.

And the FcRn 6.0 (binding relative to parental) (% of parental (parental = 100)) [2]?
Its FcRn 6.0 (binding relative to parental) (% of parental (parental = 100)) is 92.

Which FcRn 7.0 (binding relative to parental) (% of parental (parental = 100)) [1] does the source give for “anti-CD20 IgG Fc variant S440Y (antibody)” here?
Its FcRn 7.0 (binding relative to parental) (% of parental (parental = 100)) is 102.

And the FcRn 6.0 (binding relative to parental) (% of parental (parental = 100)) [2]?
Its FcRn 6.0 (binding relative to parental) (% of parental (parental = 100)) is 106.

Which results are given for “anti-CD20 IgG Fc variant T256M (antibody)”?
FcRn 7.0 (binding relative to parental) (% of parental (parental = 100)) [1]: 82; FcRn 6.0 (binding relative to parental) (% of parental (parental = 100)) [2]: 72

What does the source list for “anti-CD20 IgG Fc variant T256P (antibody)”?
FcRn 7.0 (binding relative to parental) (% of parental (parental = 100)) [1]: 121; FcRn 6.0 (binding relative to parental) (% of parental (parental = 100)) [2]: 132

Which results are given for “anti-CD20 IgG combinatorial Fc variant (L256P, I332E) (antibody)”?
Kd [3]: 21 nM; EC50 (read off the curve) [4]: 1 µg/mL

For “wild type (parental Fc) anti-CD20 IgG (antibody)”, which FcRn 7.0 (binding relative to parental) (% of parental (parental = 100)) [1] is on record?
The FcRn 7.0 (binding relative to parental) (% of parental (parental = 100)) was 100.

What about the FcRn 6.0 (binding relative to parental) (% of parental (parental = 100)) [2] of the same substance?
Its FcRn 6.0 (binding relative to parental) (% of parental (parental = 100)) is 100.

What about the Kd [3] of the same substance?
The Kd was 387 nM.

— patent US20080089892A1
